Tests used:
[1] = molecular target: T1, endogenous human APOL1 (wild-type immortalized podocytes; also JHH-1 cells, kidney and liver tissue) (human, UniProt O14791 28-398); experiment: podocyte flow cytometry
T1 construct: whole, on cells; Cell or tissue and permeabilization are told under assay; also called podocyte APOL1; endogenous APOL1
T1 sequence (looked up): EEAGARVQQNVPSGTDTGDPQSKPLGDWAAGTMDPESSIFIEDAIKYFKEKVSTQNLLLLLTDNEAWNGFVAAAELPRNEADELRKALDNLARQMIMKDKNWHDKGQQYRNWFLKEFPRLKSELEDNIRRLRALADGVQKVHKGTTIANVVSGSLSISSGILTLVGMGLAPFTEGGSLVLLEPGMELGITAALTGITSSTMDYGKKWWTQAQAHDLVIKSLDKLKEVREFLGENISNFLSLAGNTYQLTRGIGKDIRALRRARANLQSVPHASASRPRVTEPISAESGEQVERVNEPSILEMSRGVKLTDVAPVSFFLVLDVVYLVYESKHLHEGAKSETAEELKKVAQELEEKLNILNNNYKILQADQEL
Description: In FIG. 25A, live WT (left) or APOL1 KO (right) podocytes were incubated on ice for 1 h (without fixation or permeabilization) with 2.5 μg/ml 3.6D12 (an APOL2 cross-reactive mAb). “2° Ab” is Alexa488 anti-mouse secondary antibody alone; “—IFNγ” is untreated; “+IFNγ” is IFNγ-treated cells. There is a shift on WT, but not KO cells (which express APOL2 but not APOL1). […] Thus, the shift seen with 3.6D12 in WT cells must represent APOL1, and increases with IFNγ, as expected.
(§1) Cells were harvested with 5 mM EDTA in PBS, washed once with growth media and twice with PBS. Approximately 0.5×10⁶/m1 of cells resuspended in PBS were incubated with anti-APOL1 antibodies for 1 h on ice. Following two PBS washes, 2 μg/ml of Alexa488 anti-mouse or anti-rabbit (Invitrogen A11029 and A21206, respectively) was used for 1 h on ice for detection. Cells were washed twice in PBS and resuspended in PBS with 1 μg/ml propidium iodide. Signals were read in a FACSCalibur3 (Becton Dickinson), with the exception of FIG. 8A and FIG. 14, which used a FACSCelesta, and data was analyzed using FlowJo v8.4.5. Mean fluorescence intensities were plotted in PRISM v7 after subtraction of secondary antibody alone background. For low pH experiments, cells were incubated with the antibodies in the presence of PBS pH 7.0 or PBS pH 5.5 for an hour on ice and detected with secondary antibodies at neutral pH.

[2] = molecular target: T2, endogenous APOL2 in human podocytes (human, UniProt Q9BQE5 1-337); experiment: western blot of WT and APOL1 KO podocyte lysates
T2 construct: In podocyte lysates (western blot) or fixed, permeabilized podocytes; also called 36 kDa APOL2 band
T2 sequence (looked up): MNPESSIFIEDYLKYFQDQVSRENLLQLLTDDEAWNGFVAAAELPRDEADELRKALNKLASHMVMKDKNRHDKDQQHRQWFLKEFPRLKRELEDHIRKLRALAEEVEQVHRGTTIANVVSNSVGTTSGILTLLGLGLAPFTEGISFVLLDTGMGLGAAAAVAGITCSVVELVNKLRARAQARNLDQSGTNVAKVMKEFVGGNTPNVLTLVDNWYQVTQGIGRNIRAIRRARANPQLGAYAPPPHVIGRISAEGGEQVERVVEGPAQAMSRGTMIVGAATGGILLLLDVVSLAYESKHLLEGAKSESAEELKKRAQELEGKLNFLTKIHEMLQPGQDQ
Description: The results corroborate the IF cross-reactivities, except for APOL4 cross-reactivity, which appears to be conformationally sensitive. The 3.6D12 antibody continues to recognize APOL2 in the APOL1 KO podocytes (generated as described in Example 1). Note the 4.17A5 western is shown at a longer exposure than the others.
Following three TBST washes, anti-mouse (GE Healthcare NA931V, 1:3000) or anti-rabbit HRP (Jackson 711-036-152, 1:8000) was added as secondary antibody. After 1 h, membranes were washed and protein detected using ECL prime (Amersham RPN2232) exposed to MR film (Kodak). Anti-actin HRP-conjugated antibody (clone 13E5, Cell Signaling Technologies 5125S at 1:5000) or calnexin (Abcam Ab22595 at 1:1000) was used as a loading control. For peptide mapping, 2 μl of 1 mM peptides in DMSO were boiled in 5× sample buffer and loaded on 10% Tris-Glycine gel and run using MES buffer. Cell pellets of Sf9 lysates were lysed in native RIPA (NP-40) lysis buffer and run on 10% Tris-Glycine gels.

[3] = molecular target: T1, endogenous human APOL1 (wild-type …); experiment: flow cytometry, live WT and iAPOL1-G0 podocytes
Description: as §1
More importantly, there were also differential APOL1 accessibilities between serum APOL1 and kidney disease-relevant podocytes (FIG. 18B). Some antibodies bound surface APOL1 in WT and iAPOL1 podocytes (FIG. 6A, 6B), but not circulating APOL1 (as judged by lack of trypanolytic blockade, FIG. 6C) and vice versa. […] Conversely, 3.3B6 and 4.17A5 were among the top trypanolytic blockers, but recognized the podocyte surface relatively weakly. […]

B1: antibody 3.6D12 (antibody, V domains shown)
VH: EVMLVESGGGLVRPGGSLKLSCTASGFTFSRCAMSWVRQTPEKRLEWVSAISRDSTYTYYSDSVKGRFTVSRDNAKNTLYLQMSSLRSEDTAMYYCARQIDDYYVDALDYWGQGTSVTVSS
VL: DVQITQSPSYLAASPGETITINCRASKIISKYLAWYQEKPGKTIKLLIYSGFTLQSGIPSRFSGSGSGTDFTLTISSLEPEDFAMYYCQQHNEYPLTFGAGTKLEIKR
notes: Mouse mAb (Method #3), cloned as murine IgG2a LALAPG; Early screens used hybridoma-purified antibody; also called mAb 3.6D12
B1: binds [1]; binds [2].

B2: antibody 4.17A5 (antibody, V domains shown)
VH: QVQLQQSGPELLKPGASVKISCKGSGYAFSNSWINWVKLRPGQGLEWIGRIYPGDGDTKYNGKFKGKATLTADKSSSTAHMQLRSLTSVDSAVYFCARFPFGKYEGPGAMDYWGQGTSVTVSS
VL: DIQMTQTTSSLSASLGDRVTISCRASQDISSYLNWYQQKPDGTIKLLIYYTSRLHSGVPSRFSGSGSGTDFSLTISNLEQEDIATYFCQQGNTLPYTFGGGTKLEIKR
notes: Mouse mAb (Method #4), cloned as murine IgG2a LALAPG; also called mAb 4.17A5
B2: binds [3].

From patent US20230071609A1 (Genentech, published 2023)
